Measured values from patent US20220162304A1.

How the values were obtained:
[1] = target: fusion protein of human CD79B extracellular domain (ECD) and His tag (human CD79B ECD-His) (human) (UniProt P40259); test: SPR (Biacore 8K; by Example 2 human CD79B-His immobilised on CM5 chip, antibody flowed over)
[2] = target: human CD79B antigen (coating antigen of the ELISA, construct not stated) (human) (UniProt P40259); test: ELISA, plate coated with antigen at 1 ug/mL, serial antibody dilutions, OD450
Sequence of human CD79B antigen (coating antigen of the ELISA, construct not stated) (human) (P40259 29-159 limits assumed): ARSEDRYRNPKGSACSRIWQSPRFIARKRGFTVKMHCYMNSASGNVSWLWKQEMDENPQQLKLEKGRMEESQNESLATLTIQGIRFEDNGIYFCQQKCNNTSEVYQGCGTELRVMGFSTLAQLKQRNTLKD

Sequence of fusion protein of human CD79B extracellular domain (ECD) and His tag (human CD79B ECD-His) (human) (P40259 29-159 limits assumed): as above

Kd [1]: 5.98 nM
EC50 (read off the curve) [2]: 0.1 nM
Substance: SN8 (antibody)
